# Article PMC8743172 (Current Research in Structural Biology, 2021)
# Read-outs that look alike come from different tables or passages of the source. Square brackets hold non-standard residues; d marks the D form. Primed or numbered codes have the meaning given here. Ends that are not written are not given here. FITC′ = fluorescein isothiocyanate fluorescent label; TAMRA = tetramethylrhodamine fluorescent label; Cy5 = cyanine-5 fluorescent label; pS = N[C@@H](COP(=O)(O)O)C(=O)O
# T1: 14-3-3ε (human, UniProt P62258 1-255)
# T1 sequence (looked up): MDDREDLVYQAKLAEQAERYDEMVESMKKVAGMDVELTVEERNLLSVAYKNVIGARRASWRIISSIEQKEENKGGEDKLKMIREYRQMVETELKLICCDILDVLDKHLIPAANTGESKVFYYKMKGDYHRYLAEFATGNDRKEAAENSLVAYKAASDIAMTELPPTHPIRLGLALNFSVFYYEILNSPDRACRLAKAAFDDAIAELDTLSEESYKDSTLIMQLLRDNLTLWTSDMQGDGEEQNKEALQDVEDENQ
# T2: 14-3-3ζ (human, UniProt P63104 1-245)
# T2 sequence (looked up): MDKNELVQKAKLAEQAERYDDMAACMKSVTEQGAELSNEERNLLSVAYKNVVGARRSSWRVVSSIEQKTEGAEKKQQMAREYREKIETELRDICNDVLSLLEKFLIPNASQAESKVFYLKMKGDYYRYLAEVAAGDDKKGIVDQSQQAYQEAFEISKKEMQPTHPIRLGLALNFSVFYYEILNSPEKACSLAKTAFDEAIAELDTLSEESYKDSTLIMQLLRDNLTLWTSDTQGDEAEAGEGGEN
# T3: 14-3-3β (human, UniProt P31946 1-246)
# T3 sequence (looked up): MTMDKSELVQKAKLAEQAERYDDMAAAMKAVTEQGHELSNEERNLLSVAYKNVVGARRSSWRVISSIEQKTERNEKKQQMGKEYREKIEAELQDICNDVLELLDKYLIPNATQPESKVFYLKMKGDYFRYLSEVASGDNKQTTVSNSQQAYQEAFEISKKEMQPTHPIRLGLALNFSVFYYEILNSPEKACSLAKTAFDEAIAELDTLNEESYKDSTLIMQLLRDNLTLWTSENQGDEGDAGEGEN
# T4: 14-3-3τ (human, UniProt P27348 1-245)
# T4 sequence (looked up): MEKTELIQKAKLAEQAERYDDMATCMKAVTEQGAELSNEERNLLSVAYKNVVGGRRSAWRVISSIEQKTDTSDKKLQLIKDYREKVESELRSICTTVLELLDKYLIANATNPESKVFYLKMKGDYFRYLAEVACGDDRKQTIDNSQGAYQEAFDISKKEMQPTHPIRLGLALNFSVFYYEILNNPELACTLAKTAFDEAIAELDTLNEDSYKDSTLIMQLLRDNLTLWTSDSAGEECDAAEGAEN
# T5: Cy5 labelled 13-mer Amot-p130 peptide (also: phosphoserine at 175 (S5 or S7))
# T5 peptide: Cy5-GHVRSL[pS]ERLMQM
# T6: 14-3-3σΔC (C-terminally truncated after T231) (human, UniProt P31947 1-231)
# T6 sequence (looked up): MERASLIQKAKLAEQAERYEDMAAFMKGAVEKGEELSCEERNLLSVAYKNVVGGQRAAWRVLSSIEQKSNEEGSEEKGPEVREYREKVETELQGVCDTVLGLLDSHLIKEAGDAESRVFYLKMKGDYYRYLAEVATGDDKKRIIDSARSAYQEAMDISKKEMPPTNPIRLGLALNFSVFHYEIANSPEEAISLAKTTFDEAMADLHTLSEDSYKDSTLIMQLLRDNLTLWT
# B1: FITC-labelled 13-mer Amot-p130 peptide (peptide)
# peptide: {FITC′}-GHVRSL[pS]ERLMQM
# modifications: also: phosphoserine at 175 (S5 or S7)
# B2: 14-3-3η (natural protein, human, UniProt Q04917 1-246, looked up)
# chain: MGDREQLLQRARLAEQAERYDDMASAMKAVTELNEPLSNEDRNLLSVAYKNVVGARRSSWRVISSIEQKTMADGNEKKLEKVKAYREKIEKELETVCNDVLSLLDKFLIKNCNDFQYESKVFYLKMKGDYYRYLAEVASGEKKNSVVEASEAAYKEAFEISKEQMQPTHPIRLGLALNFSVFYYEIQNAPEQACLLAKQAFDDAIAELDTLNEDSYKDSTLIMQLLRDNLTLWTSDQQDEEAGEGN
# Tests used:
# apo 14-3-3 = settings: ref Andrei et al., 2018; cited from earlier work
# 14-3-3ε = target: T1, 14-3-3ε; assay: fluorescence polarisation
# 14-3-3ζ = target: T2, 14-3-3ζ; assay: fluorescence polarisation
# 14-3-3β = target: T3, 14-3-3β; assay: fluorescence polarisation
# 14-3-3τ = target: T4, 14-3-3τ; assay: fluorescence polarisation
# [1] = target: B1; assay: fluorescence polarisation
# [2] = target: T5, Cy5 labelled 13-mer Amot-p130 peptide; assay: MST
# [3] = target: T6, 14-3-3σΔC (C-terminally truncated after …); assay: crystal structure
# 14-3-3η = target: B2; assay: fluorescence polarisation
# [4] = target: T6, 14-3-3σΔC (C-terminally truncated after …); assay: crystal structure; remark: listed apart in the source
molecule,measurement,setting,value
C=CC(C)(C)OC[C@H]1O[C@H](O[C@@H]2C3=C([C@H](C)CNC(C)=O)C[C@H](O)[C@]3(C)/C=C3/[C@@H](COC)CC[C@H]3[C@@H](C)[C@H]2O)[C@H](O)[C@@H](O)[C@@H]1O [FC-NAc],affinity for the apo 14-3-3,apo 14-3-3,higher affinity for the apo 14-3-3
B1,binding result,14-3-3ε,binds
same,binding result,14-3-3ζ,binds
same,binding result,14-3-3β,binds
same,binding result,14-3-3τ,binds
B2,fold stabilisation with 1 mM fragment 09 or 22 against the DMSO control,[1],2 fold
same,fold stabilisation with 1 mM fragment 09 or 22 against the DMSO control,[2],2 fold
GHVRSL[pS]ERLMQMSLATSGV (not fully specified (C-terminus)) [20-mer Amot-p130 peptide (for crystallography)],binding result,[3],binds
{TAMRA}-GHVRSL[pS]ERLMQM (also: phosphoserine at 175 (S5 or S7)) [TAMRA-labelled 13-mer Amot-p130 peptide],binding result,14-3-3η,binds
GHVRSL[pS]ERLMQM (not fully specified (C-terminus)) [13-mer Amot-p130 peptide (for crystallography)],binding result,[4],binds
